Assay results published in the supplement of paper PMC10126150.
± gives the standard deviation of the averaged measurements.

Test system: ATP
Assay: switch fluorescence ratio, 500 uM ATP over buffer (Cy3 cluster intensity, sum of 5 cycles each) (fold (ratio)); higher = stronger signal-on switching upon ATP binding; sequences stand for … in TCGTCGGCAGCGTCAGATGTGTATAAGAGACAGTTTTTTTTTTTTTTTTTTTTTTTTT…TC
Conditions: aptamer strand: ATP DNA aptamer (quencher-CACCTGGGGGAGTATTGCGGAGGAAGG + anchor), 100 nM annealed; ATP concentration: 500 uM
Method in brief: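 The fluorescence ratio divides summed target-cycle Cy3 intensity by summed buffer-cycle Cy3 intensity for each cluster and is averaged per switch-domain sequence. Cy3-labelled switching-strand clusters on a modified Illumina MiSeq flow-cell were annealed to 100 nM quencher-labelled ATP aptamer, then imaged in selection buffer and again after 15 min with 500 uM ATP at 22 °C. Five such cycles were run, with NaOH stripping and re-annealing between them, and clusters outside 100-1000 RFU were excluded.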
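Further: ATP exposure 15 min at 22 °C before imaging.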

AGGGGTACGT
switch fluorescence ratio: 0.982 ± 0.011

AGTAGCGTCG
switch fluorescence ratio: 0.985 ± 0.048

GGGCTGGGTC
switch fluorescence ratio: 0.98 ± 0.038

CCAACGGTCT
switch fluorescence ratio: 1.04 ± 0.0012

TGATCGGGGT
switch fluorescence ratio: 1.02 ± 0.018

CAATCCTATC
switch fluorescence ratio: 1.02 ± 0.034

ATCGACGGGG
switch fluorescence ratio: 1.01 ± 0.01

ACTGGTTTTT
switch fluorescence ratio: 0.987 ± 0.036

GGGGGGAAAT
switch fluorescence ratio: 1.01 ± 0.057

TGAAAAATGT
switch fluorescence ratio: 0.984 ± 0.016

CCATTTAGTT
switch fluorescence ratio: 1.09 ± 0.12

GCAGGGGGCG
switch fluorescence ratio: 1.04 ± 0.051

GCTCGGGGTT
switch fluorescence ratio: 1.01 ± 0.011

AACTGAGTAG
switch fluorescence ratio: 1.01 ± 0.015

ATTTATACGC
switch fluorescence ratio: 1.06 ± 0.038

TTGGGTCATA
switch fluorescence ratio: 1.01 ± 0.039

ACCACAATGT
switch fluorescence ratio: 1.08 ± 0.055

CGGAGGGTGT
switch fluorescence ratio: 0.997 ± 0.033

AAGCATCTAC
switch fluorescence ratio: 2.08 ± 0.32

ATTTGGCTGG
switch fluorescence ratio: 0.986 ± 0.015

GCTGGAGGAA
switch fluorescence ratio: 1.07 ± 0.018

TAGATCAATG
switch fluorescence ratio: 1.02 ± 0.024

CTAGGGGACA
switch fluorescence ratio: 1.04 ± 0.029

CAGCAACTCA
switch fluorescence ratio: 1.65 ± 0.024

ACAAGATACG
switch fluorescence ratio: 1.13 ± 0.013

TTTCTTTCGG
switch fluorescence ratio: 1.03 ± 0.048

GAACAGGGGG
switch fluorescence ratio: 1.01 ± 0.046

AGTTACTGGG
switch fluorescence ratio: 1.06 ± 0.046

TCTGGTTTGT
switch fluorescence ratio: 1.04 ± 0.049

TCGTGGGGGA
switch fluorescence ratio: 1.02 ± 0.028

TTCTGGGGTG
switch fluorescence ratio: 1.46 ± 0.67

GCCTTACAGT
switch fluorescence ratio: 0.985 ± 0.015

GGTGTTGCAA
switch fluorescence ratio: 1.02 ± 0.016

TTTCATAAGT
switch fluorescence ratio: 0.999 ± 0.025

GAAGCTAATC
switch fluorescence ratio: 2.77 ± 0.47

AAAATCGTGA
switch fluorescence ratio: 1.009 ± 0.0097

ATATTCTTGT
switch fluorescence ratio: 1.009 ± 0.0095

GGGGAGATTC
switch fluorescence ratio: 0.994 ± 0.013

ACTGTCGTCT
switch fluorescence ratio: 1.0405 ± 0.00033

TAATATTGGG
switch fluorescence ratio: 0.989 ± 0.029

CGTAATTATG
switch fluorescence ratio: 1.01 ± 0.03

ACTATTCGT
switch fluorescence ratio: 0.99 ± 0.026

AATTAAATA
switch fluorescence ratio: 0.979 ± 0.037

TTTTTCTACG
switch fluorescence ratio: 1.2 ± 0.28

CGTAAGGGGG
switch fluorescence ratio: 1.02 ± 0.035

TAACTAATTT
switch fluorescence ratio: 1.03 ± 0.017

TTTCGGACCT
switch fluorescence ratio: 1.3458 ± 0.00061

AGTTAGAGGT
switch fluorescence ratio: 1.05 ± 0.018

CGTCGGGGAA
switch fluorescence ratio: 1.02 ± 0.027

GCTGCGCATT
switch fluorescence ratio: 1.94 ± 0.028

GGTTCGGTTC
switch fluorescence ratio: 1.02 ± 0.017

GATTAAGGAG
switch fluorescence ratio: 0.995 ± 0.011

TATTTTGGGG
switch fluorescence ratio: 0.988 ± 0.019

ACGAAGGGCG
switch fluorescence ratio: 1.019 ± 0.01

GCGGTGCTTG
switch fluorescence ratio: 0.9901 ± 0.0071

AAGAGTCTTT
switch fluorescence ratio: 1.01 ± 0.017

TACAGAATGA
switch fluorescence ratio: 1.003 ± 0.0041

TGGTGGCGTT
switch fluorescence ratio: 1.026 ± 0.0082

TTGGGCAAGG
switch fluorescence ratio: 1.02 ± 0.026

GTGGCTCTGC
switch fluorescence ratio: 0.973 ± 0.077

GTATTATGCG
switch fluorescence ratio: 1.02 ± 0.028

GTTATTGTTC
switch fluorescence ratio: 0.975 ± 0.016

AGTTTAAGAA
switch fluorescence ratio: 0.98 ± 0.031

TTGCACCATT
switch fluorescence ratio: 1.05 ± 0.12

TCGGGGGGCA
switch fluorescence ratio: 0.992 ± 0.028

TTGAAATATT
switch fluorescence ratio: 1.02 ± 0.013

ATGTTGGCGT
switch fluorescence ratio: 1 ± 0.011

ATAGTTTTCC
switch fluorescence ratio: 1 ± 0.024

ATGTATTTGG
switch fluorescence ratio: 1.01 ± 0.014

CATGGGAAGT
switch fluorescence ratio: 1.01 ± 0.035

TAAGGAGTTC
switch fluorescence ratio: 0.965 ± 0.021

TAGGGGTGAG
switch fluorescence ratio: 1.04 ± 0.021

TTTTCGTGGT
switch fluorescence ratio: 0.984 ± 0.017

TTTGCTGGTG
switch fluorescence ratio: 1.1 ± 0.026

TAAGAAAGGG
switch fluorescence ratio: 0.9572 ± 0.0095

TTGAGTACTT
switch fluorescence ratio: 0.988 ± 0.025

TACAAGTCGT
switch fluorescence ratio: 0.98 ± 0.012

TGGACTTGGA
switch fluorescence ratio: 0.9869 ± 0.0031

CTGTGGCAGG
switch fluorescence ratio: 1.021 ± 0.0041

CATATTATCA
switch fluorescence ratio: 1.02 ± 0.024

ACAGTTGGCT
switch fluorescence ratio: 1.0179 ± 0.00096

CCCCGTTAGT
switch fluorescence ratio: 1.01 ± 0.08

GGGCTTAAAA
switch fluorescence ratio: 0.98424 ± 0.00098

TGAGTGCTCT
switch fluorescence ratio: 0.9733 ± 0.0062

CCACTATTCT
switch fluorescence ratio: 1.001 ± 0.0062

CCCATACTGA
switch fluorescence ratio: 1.11 ± 0.036

TACTTGAGTT
switch fluorescence ratio: 1.05 ± 0.012

GGGGAGAGAG
switch fluorescence ratio: 0.9747 ± 0.0073

ATAGATTAGT
switch fluorescence ratio: 0.996 ± 0.035

AAATAGGCA
switch fluorescence ratio: 0.981 ± 0.017

ATGGGGATGA
switch fluorescence ratio: 0.9776 ± 0.004

GGTTAGTATT
switch fluorescence ratio: 0.987 ± 0.021

GAAGCCGGGC
switch fluorescence ratio: 1.04 ± 0.022

TTGGTTGTAG
switch fluorescence ratio: 1.01 ± 0.02

TCGAGGGGGA
switch fluorescence ratio: 1.31 ± 0.63

CGAGATGGGT
switch fluorescence ratio: 0.974 ± 0.028

GAGAGAATTT
switch fluorescence ratio: 1 ± 0.02

TAATAATTGT
switch fluorescence ratio: 1.018 ± 0.0078

AGGTATGGCC
switch fluorescence ratio: 1.04 ± 0.091

TCTTACTGGG
switch fluorescence ratio: 0.997 ± 0.018

TGTGAGGGGA
switch fluorescence ratio: 1.01 ± 0.035

TTCGTTTCGT
switch fluorescence ratio: 0.995 ± 0.014

ATTGGGAGTA
switch fluorescence ratio: 0.988 ± 0.0099

AGGGCTTAGA
switch fluorescence ratio: 0.9905 ± 0.0033

GGCTTCTAAG
switch fluorescence ratio: 0.994 ± 0.026

TGGGGGAGGT
switch fluorescence ratio: 1 ± 0.027

AAAATCGCGG
switch fluorescence ratio: 0.9844 ± 0.0018

ATACCAATGA
switch fluorescence ratio: 1.05 ± 0.029

CTGGGCCCGG
switch fluorescence ratio: 1.16 ± 0.27

GAGCACGTTT
switch fluorescence ratio: 0.9963 ± 0.0072

TGGGATTTAG
switch fluorescence ratio: 1 ± 0.044

CACCACGTGG
switch fluorescence ratio: 1.01 ± 0.018

ATTTGACTTT
switch fluorescence ratio: 1.04 ± 0.031

GGGGGTATAC
switch fluorescence ratio: 1.28 ± 0.11

CATATCACAT
switch fluorescence ratio: 1.024 ± 0.0062

TTCAATTCAC
switch fluorescence ratio: 1.37 ± 0.41

TATTGTTTTT
switch fluorescence ratio: 1.01 ± 0.022

GGTATGGGGG
switch fluorescence ratio: 1.02 ± 0.031

GGGCTTTGGG
switch fluorescence ratio: 1.008 ± 0.0068

ATTGAGATGC
switch fluorescence ratio: 0.938 ± 0.014

GATGCAAGGG
switch fluorescence ratio: 1.83 ± 0.14

TGACGACGAG
switch fluorescence ratio: 0.992 ± 0.052

TAATCTTAGG
switch fluorescence ratio: 0.9838 ± 0.0079

CCTGTGTGAC
switch fluorescence ratio: 1.344 ± 0.013

AATATGTAAT
switch fluorescence ratio: 0.989 ± 0.021

AATACGGGGG
switch fluorescence ratio: 1.03 ± 0.13

GCTTGAGGTA
switch fluorescence ratio: 1.02 ± 0.054

TTTCGTATTC
switch fluorescence ratio: 1 ± 0.015

CGTATCGTGG
switch fluorescence ratio: 1.03 ± 0.031

ATATTCCACA
switch fluorescence ratio: 0.9984 ± 0.0093

AAGGGCATTT
switch fluorescence ratio: 1.04 ± 0.028

GTATTGTGGT
switch fluorescence ratio: 0.967 ± 0.017

ATGTGTGTA
switch fluorescence ratio: 1 ± 0.021

TAGTCGAGAC
switch fluorescence ratio: 1.01 ± 0.018

GGGGAAGGGC
switch fluorescence ratio: 1.02 ± 0.053

GGGTAAATCG
switch fluorescence ratio: 0.981 ± 0.068

GCGTGAGTTG
switch fluorescence ratio: 0.9783 ± 0.0085

ATGTCTGGGC
switch fluorescence ratio: 0.977 ± 0.014

TATAATAGTA
switch fluorescence ratio: 1.0013 ± 0.001

GAAACGGCGG
switch fluorescence ratio: 1.04 ± 0.055

GGTCGGCATA
switch fluorescence ratio: 1.01 ± 0.042

TTTTAGTCGT
switch fluorescence ratio: 0.991 ± 0.02

TTGTTAGAA
switch fluorescence ratio: 1.0004 ± 0.001

GGCGATTTTG
switch fluorescence ratio: 0.958 ± 0.03

AGGGATGGGG
switch fluorescence ratio: 0.976 ± 0.016

GAAGTGGGAT
switch fluorescence ratio: 0.984 ± 0.022

TTTAGAAACT
switch fluorescence ratio: 1.027 ± 0.0067

CGCTGAGATC
switch fluorescence ratio: 1.016 ± 0.002

AGTGAGCTAT
switch fluorescence ratio: 1.01 ± 0.018

AAGGGGCGTG
switch fluorescence ratio: 0.997 ± 0.03

ATCTTAGGTT
switch fluorescence ratio: 1.03 ± 0.096

TAGGCGGGGG
switch fluorescence ratio: 1 ± 0.02

TGTTCGCATG
switch fluorescence ratio: 1.08 ± 0.032

ACCGCGGTGT
switch fluorescence ratio: 1.007 ± 0.0052

GGGTTGAGAG
switch fluorescence ratio: 0.985 ± 0.026

GACGGTAGGG
switch fluorescence ratio: 0.969 ± 0.051

TATAAGGGCG
switch fluorescence ratio: 0.976 ± 0.058

ACGTATATTG
switch fluorescence ratio: 1.058 ± 0.0052

ATAGGGGGGA
switch fluorescence ratio: 1.01 ± 0.018

TTATAGAGG
switch fluorescence ratio: 1.02 ± 0.0041

TCAGTTGTGC
switch fluorescence ratio: 1.01 ± 0.042

CGGAAGCTAA
switch fluorescence ratio: 1.46 ± 0.16

TAGTAGGAGT
switch fluorescence ratio: 1.02 ± 0.035

TTACGGTGCC
switch fluorescence ratio: 0.987 ± 0.03

TATATTTGTA
switch fluorescence ratio: 0.979 ± 0.024

TTATTTTAAC
switch fluorescence ratio: 0.981 ± 0.04

GTAATATCGG
switch fluorescence ratio: 0.998 ± 0.018

TTTTTGCCGG
switch fluorescence ratio: 1.01 ± 0.014

TCTAGGGGGG
switch fluorescence ratio: 1.02 ± 0.058

ATATTGAGAT
switch fluorescence ratio: 0.998 ± 0.037

CATGGGGATT
switch fluorescence ratio: 1.017 ± 0.0057

TAGATTGGTG
switch fluorescence ratio: 0.991 ± 0.04

GATGATGTGT
switch fluorescence ratio: 1.02 ± 0.031

CGGGATATAA
switch fluorescence ratio: 0.989 ± 0.022

TGGGTGGAGG
switch fluorescence ratio: 1.02 ± 0.043

GGTGGGTTTG
switch fluorescence ratio: 1.03 ± 0.024

GCGTATCGGA
switch fluorescence ratio: 1.01 ± 0.043

GTGGGGTACA
switch fluorescence ratio: 0.996 ± 0.049

TAGCACCATT
switch fluorescence ratio: 1.1 ± 0.072

CTTGGAGGGT
switch fluorescence ratio: 1.04 ± 0.086

AAGGACAAGA
switch fluorescence ratio: 1.02 ± 0.00092

GATGAATTAG
switch fluorescence ratio: 1.005 ± 0.0082

CTCAATTTTA
switch fluorescence ratio: 0.9743 ± 0.006

GGTGGGGTGC
switch fluorescence ratio: 1.01 ± 0.046

CAATGCAGCA
switch fluorescence ratio: 0.976 ± 0.021

TTCAATACCG
switch fluorescence ratio: 1.09 ± 0.025

ACTGAGGATG
switch fluorescence ratio: 1.06 ± 0.0063

GCGGGACTTG
switch fluorescence ratio: 1.03 ± 0.029

TAGGTCCTGG
switch fluorescence ratio: 0.9888 ± 0.0074

TGAATCGTTT
switch fluorescence ratio: 0.937 ± 0.043

TACGTATTTT
switch fluorescence ratio: 1.023 ± 0.0035

TAGGCGGCAC
switch fluorescence ratio: 1.03 ± 0.046

AGGTCCGGTA
switch fluorescence ratio: 1.01 ± 0.011

AAAGGGCGCA
switch fluorescence ratio: 1.02 ± 0.017

TTGATTTCGT
switch fluorescence ratio: 0.9998 ± 0.0024

TCGGGTAAGC
switch fluorescence ratio: 1.014 ± 0.0052

GTGGGAGCGG
switch fluorescence ratio: 1.02 ± 0.042

GTGTAGATTA
switch fluorescence ratio: 1.02 ± 0.014

GAGGAAGATT
switch fluorescence ratio: 1.02 ± 0.021

GCATTTGCTG
switch fluorescence ratio: 0.9719 ± 0.0044
